The RNAGym collection of RNA variant scans (doi:10.1073/pnas.2313332121)

B1: TPR t1 (parent)
chain: GACCAAUCUGCCCUCAGAGCUCGAGAACAUCUUCGGAUGCAGAGGAGGCAGGCUUCGGUGGCGCGAUAGCGCCAACGUCCUCAACCUCCAAUGCAUCCCACCACAUGAUGAUGCCUGAAGAGCCUUGGUUUUUUG

Variants of: B1
Test: polymerase ribozyme fitness, log enrichment relative to wild type (log ratio); higher = more active; in vitro selection for triplet polymerase activity
Outline: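 Input and output libraries were sequenced on Illumina after a single in vitro selection round, run in triplicate on PCR-built, transcribed mutant libraries of each subunit of a heterodimeric triplet polymerase ribozyme. Selection annealed libraries to a biotinylated primer, the partner subunit and triplets, incubated them frozen at −7 °C, then gel-excised extended constructs for streptavidin-bead capture and RT-PCR. Genotypes with ≥10 input reads and ≥1 read per output were kept. Fitness is the logarithm, taken in base 2, of genotype enrichment divided by wild-type enrichment, using inverse-variance-weighted replicate averages.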

Variant | polymerase ribozyme fitness (log ratio)
C70A C80A U126C | -5.37
C70A C85U G113A | -3.33
C70A C86A | -2.39
C70A C86G C102A | -4.88
C70A C88G U125G | -3.18
C70A C89U | -2.29
C70A C98U | -2.73
C70A C99U | -5.26
C70A C101A | -2.43
C70A C104A | -3.24
C70A C114A | -2.64
C70A C114A A119U | -4.59
C70A C115U | -2.84
C70A G93C | -3.33
C70A G110A U133A | -3.64
C70A G117U | -4.09
C70A G120A | -0.62
C70A G128C | -4.69
C70A U78A C115U | -4.18
C70A U78C G113A | -2.47
C70A U81C C88A G120U | -3.19
C70A U87G | -1.73
C70A U96A | -2.63
C70A U109C | -4.18

Variant | polymerase ribozyme fitness (log ratio)
C70A U109G | -5.72
C70A U112A G113A | -2.47
C70A U130G | -2.49
C70G A83C | -2.96
C70G A83G | -4.15
C70G A90C C114U A121G | -4.76
C70G C72G G110U | -6.42
C70G C72U | -2.61
C70G C79A A111C A119C | -8.17
C70G C85A U106A U130A | -4.47
C70G C86U G110U G113C | -6.29
C70G C88A | -4.74
C70G C88U | -2.98
C70G C94U | -3
C70G C104U G127C | -2.51
C70G C115G | -3.68
C70G C123A | -2.21
C70G C124U G128C | -3.97
C70G G77A G93A A100U A105G U106A | -4.21
C70G G93A | -4.33
C70G G93C | -4.94
C70G G110A | -4.37
C70G G117U | -4.3
C70G G135U | -3.49

Variant | polymerase ribozyme fitness (log ratio)
C70G U78C C82G A91C | -5.79
C70G U92C | -4.9
C70G U96C | -2.6
C70G U126C | -3.27
C70G U129C | -3.02
C70G U130A | -3.16
C70G U130G U131G | -4.28
C70U A75G | -0.621
C70U A83C A108G | -2.22
C70U A90G | -0.454
C70U A90G C101A C123A | -1.13
C70U A90G U106A | 0.297
C70U A95G | -0.166
C70U A105C | -3.43
C70U A105G G113A | -4.28
C70U A111G | 0.0643
C70U C72U A121G | 1.38
C70U C79U G93U | -2.15
C70U C80A | -5.7
C70U C80A A95G A111G | -5.34
C70U C80A U87A | -5
C70U C80U G113C A119G | -3.1
C70U C82A G113A | -1.84
C70U C82G | -0.344

Variant | polymerase ribozyme fitness (log ratio)
C70U C82G C124A U130C | 0.602
C70U C82U A83C C89A G93A | -4.1
C70U C85U U126A | -3.11
C70U C88A A119G U131A | 1.21
C70U C88G U125G | -1.36
C70U C97A G113C A119U G127C | -5.36
C70U C97U C101U C102A | -4.84
C70U C97U C123G U126A | -0.00382
C70U C102U | -2.39
C70U C104U | -0.703
C70U C114A | -2.33
C70U C115A | 0.108
C70U C115G | -2.23
C70U C124G | 0.921
C70U G71A U129G | -1.98
C70U G107C G122A | -5.12
C70U G110U | -2.59
C70U G117A | -1.99
C70U G120C U132C | 0.806
C70U G120U | 0.0972
C70U G128C | -2.54
C70U G135U | -1.13
C70U U78C | -1.4
C70U U78C U129A | -1.77

Variant | polymerase ribozyme fitness (log ratio)
C70U U78C U129G | -1.5
C70U U78G | -0.747
C70U U78G A108G A111C | -2.26
C70U U81C U96C | -1.2
C70U U96A G120A | -0.134
C70U U112C | 0.987
C70U U125A | -1.31
C70U U131A | -0.232
C70U U131C | 0.366
G71A A111G | -0.423
G71A A118G | -0.577
G71A C82U G110U | -2.94
G71A C86A C114A | -3.9
G71A C89U A111U U112A C123A G127C | -2.37
G71A C97U | -1.06
G71A C98U C101A | -3.15
G71A C114G | -3.49
G71A C123U | 0.153
G71A C124A | 1.21
G71A G77U C88U G110A C115A U130A | -4.99
G71A G93A G117A G120C | -2.99
G71A G110A | -2.14
G71A G110A C115U | -5.43
G71A G113C | -2.6

Variant | polymerase ribozyme fitness (log ratio)
G71A G117U | -2.33
G71A G120A | -0.000691
G71A G128C | -3.14
G71A U87G A103C U106C C124G | -3.7
G71A U92A A95U | -4.72
G71A U96A | -2.13
G71A U106A | -0.841
G71A U106A U133A | -1.42
G71A U106G | -2.73
G71A U109C | -4.59
G71A U131G | -1.27
G71A U132A | -0.617
G71C A74U C89U G110C U125A U129A | -7.38
G71C A83U G113U | -4.07
G71C A90U G122A C123U | -3.12
G71C C72A | -6.22
G71C C79G | -1.96
G71C C89G U130C | -4.18
G71C C97U | -1.45
G71C C123U | -0.362
G71C C124A | -0.102
G71C G93U C104U A119G | -1.16
G71C G113U | -2.72
G71C G120C | 0.219

Variant | polymerase ribozyme fitness (log ratio)
G71C G135U | -2.55
G71C U78A | -0.14
G71C U81G | -5.8
G71C U96G G120U | -1.37
G71C U112A | 0.348
G71U A74G | -5.51
G71U A75U C98U | -2.02
G71U A91G A121U | 0.367
G71U A95C C101U G127A | -3.11
G71U A121U | 2.07
G71U C72U A118G | -0.476
G71U C73A A83U | -2.73
G71U C79G | -2.2
G71U C82G G117A | -2.4
G71U C85A | -1.72
G71U C86A | -2.02
G71U C89A | -2.47
G71U C89A U132A | -2.07
G71U C97U U112A | 1.1
G71U C99A | -7.48
G71U C99G C115U | -7.86
G71U C101U U130G | -0.458
G71U C102G U112A G127U | -5.37
